Test results published in US20180105596A1 (ELSALYS BIOTECH, published 2018).
Residue numbers refer to the chain shown, from its start. One block for each binder: values may come before it.

Assays:
[1] = biological target: T1, recombinant His-Strep tagged human Tyro3 extracellular domain (human, UniProt Q06418 41-429); assay: BLI (Octet K2), 1:1 global fit; analyte concentration of this kobs not given
T1 construct: also called hTyro3 ECD; full Tyro3 ECD
T1 sequence: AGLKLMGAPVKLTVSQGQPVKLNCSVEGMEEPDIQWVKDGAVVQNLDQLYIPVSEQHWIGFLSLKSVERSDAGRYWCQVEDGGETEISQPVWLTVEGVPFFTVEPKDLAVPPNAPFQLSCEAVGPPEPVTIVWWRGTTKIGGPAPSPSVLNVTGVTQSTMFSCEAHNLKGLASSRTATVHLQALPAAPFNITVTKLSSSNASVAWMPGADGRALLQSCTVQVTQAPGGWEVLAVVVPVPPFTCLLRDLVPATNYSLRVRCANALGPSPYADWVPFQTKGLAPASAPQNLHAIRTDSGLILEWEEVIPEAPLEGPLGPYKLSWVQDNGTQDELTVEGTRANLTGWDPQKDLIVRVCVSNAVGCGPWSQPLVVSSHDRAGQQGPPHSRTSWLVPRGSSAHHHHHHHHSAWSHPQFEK
Description: (§1) Affinity determinations were performed using biolayer interferometry on an Octet K2 instrument (Pall/ForteBio) equipped with anti-Human Kinetics (AHC) disposable fiber-optic biosensor tips. All experiments were conducted at 30° C. in the recommended Fortebio running buffer (PBS with 0.1% (w/v) bovine serum albumin (BSA) and 0.02% (v/v) Tween_20). This buffer was also used for dilution of ligand (here the antibody) and of the analyte (here the extra cellular domain of human Tyro3 protein). Samples in a 96-well microplates (No. Black polypropylene low binding plates, Greiner Bio-One, Frickenhausen, Germany) were agitated at 1000 rpm. […] Between measurements, the anti-human Tyro3 biosensor surfaces were regenerated by exposing them to 3 cycles of 5 sec in 10 mM glycine, pH 1.5, followed by 5 sec in PBS. Association phase was measured for 300 seconds, dissociation phase depending on the interaction for 300 seconds depending on dissociation step. All measurements were corrected for baseline drift using the double reference substraction, that is to say by subtracting a control sensor without ligand exposed to each concentration of the extra cellular domain of human Tyro3 protein and a reference well with ligand submitted to running buffer only. Affinity, association (kon) and dissociation rate constants (koff) for each antibody were calculated applying a 1:1 interaction model fitting global, Rmax linked by sensor) on the ForteBio data analysis software 9.0.

[2] = biological target: T1, recombinant His-Strep tagged human …; assay: BLI (Octet K2), IgG on AHC tips, hTyro3 ECD analyte, 1:1 global fit; KD Error 4,35E-10
Description: as §1, with “All measurements were corrected for baseline drift using the double reference substraction, that is to say by subtracting a control sensor without ligand exposed to each concentration of the extra cellular domain of human Tyro3 protein and a reference well with ligand submitted to running buffer only.” left out

[3] = biological target: T1, recombinant His-Strep tagged human …; assay: BLI (Octet K2), IgG on AHC tips, hTyro3 ECD analyte, 1:1 global fit; kon Error 1,04E+03
Description: as §1, with “All measurements were corrected for baseline drift using the double reference substraction, that is to say by subtracting a control sensor without ligand exposed to each concentration of the extra cellular domain of human Tyro3 protein and a reference well with ligand submitted to running buffer only.” left out

[4] = biological target: T1, recombinant His-Strep tagged human …; assay: BLI (Octet K2), IgG on AHC tips, hTyro3 ECD analyte, 1:1 global fit; kdis(1/s); kdis Error 3,33E-05
Description: as §1, with “All measurements were corrected for baseline drift using the double reference substraction, that is to say by subtracting a control sensor without ligand exposed to each concentration of the extra cellular domain of human Tyro3 protein and a reference well with ligand submitted to running buffer only.” left out

[5] = biological target: T1, recombinant His-Strep tagged human …; assay: sandwich ELISA, Strep-tagged hTyro3 ECD captured on StrepMAB plate, IgG 3-fold from 3 µg/mL, anti-human IgG1-HRP
Description: (§2) A double sandwich ELISA was developed. This assay consisted in measuring the binding of the anti-Tyro3 antibodies to be tested on immobilized strep-tagged entire human Tyro3 ECD captured directly on ELISA plate pre-coated with an anti-strep mAb (StrepMAB-Immo coated microplates from IBA biotech). Briefly, the 96 wells of StrepMAB-Immo coated microplate were washed three times with 300 μL of the PBS Tween 0.2% (referred as ELISA washing solution). The capture of an excess of purified strep tagged hTyro3 ECD protein was achieved by a one hour incubation at room temperature. In these experiments, 3 μg of purified protein diluted in PBS, BSA 1% (referred as ELISA diluent solution) were immobilized per well. The wells were washed three times with 300 μL of the washing solution. The non-specific binding sites on the well surface were blocked during 60 min at room temperature with 200 μL/well of blocking solution (PBS, BSA 3%). The wells were washed five times with 300 μL of the washing solution. Then, 100 μl (in duplicates) of the different concentrations of anti-Tyro3 antibodies to be tested diluted in ELISA diluent solution, were added per well and allowed to incubate during 1 hour at room temperature. An Irrelevant control IgG2656 was also added in this experiment. For anti-Tyro3 antibodies in the ScFv format, experiments were performed with 6 concentrations in duplicates (FIG. 3A). For anti-Tyro3 antibodies in the IgG format, experiments were performed with 9 concentrations in duplicates (FIG. 3B). […] For IgGs experiments, starting concentration for first dilution was 3 μg/ml and then dilutions of 3 fold in the ELISA diluent solution were performed. The wells were washed five times with 300 μL of the washing solution. […] The mix was allowed to incubated 60 min at room temperature.

[6] = biological target: T2, cynomolgus Tyro3 ECD, His-Strep tagged; assay: sandwich ELISA, Strep-tagged cynomolgus Tyro3 ECD captured on StrepMAB plate, IgG 3-fold from 3 µg/mL, anti-human IgG1-HRP
T2 construct: also called cyno TYRO3 ECD 8hisstrep
T2 extracellular domain: T1 sequence with V67A, I191V, A309G, R376H
Description: [The procedure below names another species; the source lists this species under the same test.] as §2

[7] = biological target: T1, recombinant His-Strep tagged human …; assay: BLI (Octet K2), IgG on AHC tips, hTyro3 ECD analyte, 1:1 global fit; KD Error 4,92E-09
Description: as §1, with “All measurements were corrected for baseline drift using the double reference substraction, that is to say by subtracting a control sensor without ligand exposed to each concentration of the extra cellular domain of human Tyro3 protein and a reference well with ligand submitted to running buffer only.” left out

[8] = biological target: T1, recombinant His-Strep tagged human …; assay: BLI (Octet K2), IgG on AHC tips, hTyro3 ECD analyte, 1:1 global fit; kon Error 3,95E+02
Description: as §1, with “All measurements were corrected for baseline drift using the double reference substraction, that is to say by subtracting a control sensor without ligand exposed to each concentration of the extra cellular domain of human Tyro3 protein and a reference well with ligand submitted to running buffer only.” left out

[9] = biological target: T1, recombinant His-Strep tagged human …; assay: BLI (Octet K2), IgG on AHC tips, hTyro3 ECD analyte, 1:1 global fit; kdis(1/s); kdis Error 1,02E-04
Description: as §1, with “All measurements were corrected for baseline drift using the double reference substraction, that is to say by subtracting a control sensor without ligand exposed to each concentration of the extra cellular domain of human Tyro3 protein and a reference well with ligand submitted to running buffer only.” left out

[10] = biological target: T1, recombinant His-Strep tagged human …; assay: BLI (Octet K2), IgG on AHC tips, hTyro3 ECD analyte, 1:1 global fit; KD Error 6,89E-09
Description: as §1, with “All measurements were corrected for baseline drift using the double reference substraction, that is to say by subtracting a control sensor without ligand exposed to each concentration of the extra cellular domain of human Tyro3 protein and a reference well with ligand submitted to running buffer only.” left out

[11] = biological target: T1, recombinant His-Strep tagged human …; assay: BLI (Octet K2), IgG on AHC tips, hTyro3 ECD analyte, 1:1 global fit; kon Error 8,90E+02
Description: as §1, with “All measurements were corrected for baseline drift using the double reference substraction, that is to say by subtracting a control sensor without ligand exposed to each concentration of the extra cellular domain of human Tyro3 protein and a reference well with ligand submitted to running buffer only.” left out

[12] = biological target: T1, recombinant His-Strep tagged human …; assay: BLI (Octet K2), IgG on AHC tips, hTyro3 ECD analyte, 1:1 global fit; kdis(1/s); kdis Error 1,71E-04
Description: as §1, with “All measurements were corrected for baseline drift using the double reference substraction, that is to say by subtracting a control sensor without ligand exposed to each concentration of the extra cellular domain of human Tyro3 protein and a reference well with ligand submitted to running buffer only.” left out

- kobs [1]: 0.00934 s⁻¹
- Kd [2]: 39.3 nM
- kon [3]: 122000 M⁻¹ s⁻¹
- koff [4]: 0.00478 s⁻¹
- EC50 (read off the curve) [5]: ~0.03 µg/mL
- binding result [6]: binds
B1: IgG2713 (antibody, V domains shown)
VH: EVQLVQSGADVKKPGASLTISCQASGYTFTDYWISWVRQKPGKGLEWMGRISRHGSQTYYGPSFQGHVTISADRSTATAYLQWRSLEASDTAMYYCVRAGGQTSGGTIPEYYQHWGPGTLVTVSS
VL: SYELTQPPSVSVSPGQTARITCSGDALPKKYAYWYQQKSGQAPVLVIYEDHKRASGIPERFSGSSSGTMATLTISGAQVEDEADYYCYSISPAGNYGVFGGGTKLTVL
notes: also called IGX2713

- kobs [1]: 0.014 s⁻¹
- Kd [7]: 307 nM
- kon [8]: 32300 M⁻¹ s⁻¹
- koff [9]: 0.00992 s⁻¹
- EC50 (read off the curve) [5]: ~0.01 µg/mL
- binding result [6]: binds
B2: IgG2711 (antibody, V domains shown)
VH: B1 VH with R50Q, S52R, R53G, H54Q, G55H, Q57S, Y59L, A99H, G101A, Q102S
VL: B1 VL with H51A, A54S, I90L, P92D, A93S, G97F
notes: also called IGX2711

- kobs [1]: 0.0203 s⁻¹
- Kd [10]: 308 nM
- kon [11]: 46900 M⁻¹ s⁻¹
- koff [12]: 0.0144 s⁻¹
- binding result [6]: binds
B3: IgG2414 (antibody, V domains shown)
VH: B1 VH with R50Q, S52N, G55A, Q57N, Y59M, A99S, Q102A
VL: B1 VL with H51W, I90Q, S91E, P92R, A93K, G97F
notes: also called IGX2414
